# Reference: US20220324953A1 (JIANGSU HENGRUI MEDICINE, published 2022)
# Where a chain is given by its changes, count along the chain named.
# T1: human CTGF (antigen of the Biacore assays) (human, UniProt P29279 27-349)
# T1 construct: also called antigen human CTGF; human CTGF protein
# T1 sequence (looked up): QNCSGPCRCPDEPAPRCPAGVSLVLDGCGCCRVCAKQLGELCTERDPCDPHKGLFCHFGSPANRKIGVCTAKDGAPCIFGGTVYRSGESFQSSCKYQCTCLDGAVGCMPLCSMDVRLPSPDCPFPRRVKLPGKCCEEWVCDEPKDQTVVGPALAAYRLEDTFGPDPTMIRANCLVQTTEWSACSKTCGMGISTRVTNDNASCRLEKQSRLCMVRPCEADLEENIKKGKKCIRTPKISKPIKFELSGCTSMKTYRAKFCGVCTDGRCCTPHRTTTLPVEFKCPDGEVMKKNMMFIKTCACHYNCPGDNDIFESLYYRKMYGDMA
# T2: Mouse CTGF protein-His tag (mouse, UniProt P29268 26-348)
# T2 construct: C-terminal His tag; also called mouse CTGF-his protein; mouse CTGF fusion protein
# T2 sequence: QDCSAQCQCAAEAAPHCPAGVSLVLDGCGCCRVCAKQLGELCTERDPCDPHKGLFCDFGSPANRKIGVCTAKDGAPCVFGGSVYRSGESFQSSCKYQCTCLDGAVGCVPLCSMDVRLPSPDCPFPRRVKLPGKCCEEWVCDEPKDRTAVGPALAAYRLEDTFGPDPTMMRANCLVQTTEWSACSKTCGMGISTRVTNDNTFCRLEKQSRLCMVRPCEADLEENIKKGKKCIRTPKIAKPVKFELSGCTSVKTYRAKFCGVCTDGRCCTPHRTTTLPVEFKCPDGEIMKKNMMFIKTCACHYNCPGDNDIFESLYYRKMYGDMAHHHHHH
# B1: Hu164-67wl (antibody, human IgG1, lambda)
# heavy: not shown
# light: ETVVTQEPSLTVSPGGTVTLTCRSSIGAVTTSNYANWVQQKPGQAFRGLIGGTSNRAPWTPARFSGSLLGGKAALTLSGVQPEDEAEYYCALWYSTHYVFGGGTKLTVLGQPKANPTVTLFPPSSEELQANKATLVCLISDFYPGAVTVAWKADGSPVKAGVETTKPSKQSNNKYAASSYLSLTPEQWKSHRSYSCQVTHEGSTVEKTVAPTEC
# B2: Hu147-14wk (antibody, human IgG1, kappa, V domains shown)
# VH: EVQLVESGGGLVQPGGSLRLSCAASGFTFSTYAMNWVRQAPGKGLEWVGRIRTKSNNYATYYADSVKDRFTISRDDSKNSLYLQMNSLKTEDTAVYYCVETGFAYWDQGTLVTVSS
# VL: DIQMTQSPSSLSASVGDRVTITCSASSSVSYMHWFQQKPGKSPKLLIYSTSNLASGVPSRFSGSGSGTDYTLTISSLQPEDFATYYCQQRSSYPLTFGQGTKLEIKR
# B3: Hu147-34wk (antibody, human IgG1, kappa, V domains shown)
# VH: B2 VH with T28S, S30N, G49A, K78E, N79S
# VL: B2 VL
# Molecular target: T1, human CTGF (antigen of the Biacore …)
# Test: Biacore, CTGF immobilised, antibody 150 µg/ml then 50 nM TGF-β1 (competitor TGF-β1)
# Method: First, the antigen human CTGF was immobilized onto a CMS biosensor chip (Cat. # BR-1005-30, GE) by amino coupling, with an immobilization level of 1500 RU, and then a high concentration of CTGF antibody (150 μg/ml) was allowed to flow through the surface of the chip for 150 s; 50 nM TGF-β1 protein was injected for 120 s, and the reaction signals were detected in real time with the Biacore T200 instrument to generate a binding and dissociation curve. After the dissociation was completed in each of the experimental cycles, the biosensor chip was washed and regenerated with regeneration buffer.
# The resulting experimental data were statistically analyzed with GE Biacore T200 Evaluation version 3.0 software.
row,Function-blocking percentage (%),Binder
1,55.5%,B1
2,50.9%,B2
3,56.2%,B3

# Molecular target: T2, Mouse CTGF protein-His tag
# Test: ELISA, plate coated with mouse CTGF-his
# Method: The binding activity of anti-mouse CTGF antibody to mouse CTGF protein was tested by ELISA assay. A 96-well microtiter plate was directly coated with the mouse CTGF fusion protein. The signal strength upon the addition of the antibody was used to determine the binding activity of the antibody to mouse CTGF. The specific experimental procedures were as follows:
# The mouse CTGF-his protein was diluted with PBS, pH 7.4 (Shanghai Yuanpei, Cat No. B320) buffer to a concentration of 0.5 μg/ml, added into the 96-well microtiter plate (Corning, Cat No. CLS3590-100EA) at 50 μl/well, and incubated in an incubator at 37° C. for 2 hours. The liquid was removed, 250 μl/well blocking solution (5% skim milk (BD skim milk, Cat No. 232100) diluted in PBS) was added, and incubated in an incubator at 37° C. for 3 hours or at 4° C. overnight (16-18 hours) for blocking. After the blocking was finished, the blocking solution was removed, the plate was washed for 3 times with PBST buffer (PBS containing 0.1% Tween-20, pH 7.4), 50 μl/well of various concentrations of each of the test antibodies (antibodies purified from hybridoma or humanized antibodies) diluted with sample dilution solution were added, and incubated in an incubator at 37° C. for 1 hours. After the incubation was finished, the plate was washed for 3 times with PBST, 50 μl/well of HRP-labeled goat anti-mouse secondary antibody (Jackson Immuno Research, Cat No. 115-035-003) or goat anti-human secondary antibody (Jackson Immuno Research, Cat No. 109-035-003) diluted with sample dilution solution was added, and incubated at 37° C. for 1 hour. The plate was washed for 5 times with PBST, 50 μl/well of TMB chromogenic substrate (KPL, Cat No. 52-00-03) was added, incubated at room temperature for 5-10min, and 50 μl/well of 1 M H₂SO₄ was added to stop the reaction. The absorbance value was read by a microplate reader (Molecular Devices, VERSA max) at a wavelength of 450 nm, and the data was analyzed with GraphPad Prism 5. The binding of CTGF antibody to mouse CTGF protein was calculated as EC50 value.
row,EC50,Binder
1,49 pM,B1
2,431 pM,B2
3,664 pM,B3

# Molecular target: T1, human CTGF (antigen of the Biacore …)
# Test: Biacore, antibody captured on Protein A, CTGF in flow, 1:1 fit
# Outline: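 Antibodies captured on a Protein A chip, with human or mouse CTGF flowed over in HBS-EP running buffer; association and dissociation recorded in real time. Surface regenerated with glycine-HCl pH 1.5 between cycles; kinetics fitted to a 1:1 model.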
Kd,koff,kon,Binder
37.9 pM,0.00196 s⁻¹,5.17e+07 M⁻¹ s⁻¹,B1
1130 pM,0.0554 s⁻¹,4.89e+07 M⁻¹ s⁻¹,B2
1050 pM,0.0155 s⁻¹,1.47e+07 M⁻¹ s⁻¹,B3
